# Source: PMC10375748
# Tests used:
# [1] = target: ZZ peptide displayed on the CHO cell surface with the murine B7-1 transmembrane domain (from pEF1α-ZZ-B7); test: flow cytometry on cells; stable CHO-ZZ cells (2 x 10^5 cells/sample) incubated with an excess of fluorescein-conjugated IgG of Table 2 for 40 min at 4 °C, washed with PBS; percentage of positive cells
# [2] = target: ZZ peptide displayed on the CHO cell surface with the human PDGFR transmembrane domain (from pEF1α-ZZ-PDGFR); test: flow cytometry on cells; CHO cells transiently transfected with the ZZ display plasmid, labelled with hIgG-FITC; percentage of ZZ-positive cells
# [3] = target: ZZ peptide displayed on the CHO cell surface with the murine B7-1 transmembrane domain (from pEF1α-ZZ-B7); test: as above
Substance,percentage of positive cells [1] [%],percentage of ZZ-positive cells [2] [%],percentage of ZZ-positive cells [3] [%]
Human IgG-FITC (Bersee BFR550) (antibody),100,6.9,43.6
Rb pAb to 6× His tag (FITC) (Abcam Ab1206-250) (antibody),100,–,–
Rb pAb to HA tag (PE) (Abcam Ab72564) (antibody),100,–,–
Donkey Anti-Rabbit IgG (H + L)-Cy3 (Jackson ImmunoResearch Laboratories 711-165-152) (antibody),100,–,–
